Assay results reported in US20180057581A1 (MorphoSys, published 2018).

How the values were obtained:
Experiment in all cases: MSD specificity profiling, coated protein, Camille at 10 nM
Ovalbumin (chicken) = molecular target: T1, Ovalbumin (chicken) (chicken, UniProt P01012 2-386)
T1 sequence (looked up): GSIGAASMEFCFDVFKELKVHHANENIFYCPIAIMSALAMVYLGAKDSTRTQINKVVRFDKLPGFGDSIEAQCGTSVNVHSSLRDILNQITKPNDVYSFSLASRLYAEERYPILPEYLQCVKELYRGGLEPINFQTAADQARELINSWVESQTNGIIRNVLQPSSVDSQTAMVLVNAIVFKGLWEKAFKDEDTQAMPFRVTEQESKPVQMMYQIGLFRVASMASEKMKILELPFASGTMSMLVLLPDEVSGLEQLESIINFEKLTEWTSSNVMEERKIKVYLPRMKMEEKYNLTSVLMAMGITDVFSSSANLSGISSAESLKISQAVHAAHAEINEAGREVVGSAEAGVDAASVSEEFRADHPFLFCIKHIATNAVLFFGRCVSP
Experimental: (§1) For this specificity profiling test the different proteins and controls were coated on two 384-well MSD plates with a concentration of 1 μg/ml at 4° C. over night. Plates were blocked with BSA and washed three times with PBS with 0.05% (v/v) Tween 20. Antibody samples were diluted to 100 nM and 10 nM in assay buffer (PBS with 0.5% (w/v) BSA, 0.05% (v/v) Tween 20). […] Samples and controls were incubated for three hours at room temperature. The plates were washed three times and 30 μl detection antibody (ECL-labeled anti-human Fab) were added per well and incubated for 1 h. After washing, MSD Read Buffer T with surfactant was added and electrochemiluminescence signals were detected using a Sector Imager 6000 (Meso Scale Discovery, Gaithersburg, Md., USA).

Pepsinogen (pork) = Pepsinogen (pork) (pork, UniProt P00791 16-385)
Experimental: as §1

Lectin (Lens culinaris) = molecular target: T2, Lectin (Lens culinaris) (Lens culinaris, UniProt P02870 31-210; P02870 218-269, limits assumed)
T2 sequence (looked up) 1: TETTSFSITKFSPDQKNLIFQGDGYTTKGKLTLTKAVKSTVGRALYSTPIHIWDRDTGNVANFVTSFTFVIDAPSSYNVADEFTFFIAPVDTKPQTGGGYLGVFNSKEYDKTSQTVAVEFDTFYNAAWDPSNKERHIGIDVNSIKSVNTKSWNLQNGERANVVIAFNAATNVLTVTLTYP
T2 sequence (looked up) 2: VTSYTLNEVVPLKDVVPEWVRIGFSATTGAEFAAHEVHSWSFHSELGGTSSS
Experimental: as §1

[1] = molecular target: Aminogylcosidase (Aspergillus niger) (Aspergillus niger)
Experimental: as §1

Fibrinogen (bovine) = molecular target: T3, Fibrinogen (bovine) (bovine, UniProt P02672 20-615; P02676 1-468; P12799 25-444)
T3 sequence (looked up) 1: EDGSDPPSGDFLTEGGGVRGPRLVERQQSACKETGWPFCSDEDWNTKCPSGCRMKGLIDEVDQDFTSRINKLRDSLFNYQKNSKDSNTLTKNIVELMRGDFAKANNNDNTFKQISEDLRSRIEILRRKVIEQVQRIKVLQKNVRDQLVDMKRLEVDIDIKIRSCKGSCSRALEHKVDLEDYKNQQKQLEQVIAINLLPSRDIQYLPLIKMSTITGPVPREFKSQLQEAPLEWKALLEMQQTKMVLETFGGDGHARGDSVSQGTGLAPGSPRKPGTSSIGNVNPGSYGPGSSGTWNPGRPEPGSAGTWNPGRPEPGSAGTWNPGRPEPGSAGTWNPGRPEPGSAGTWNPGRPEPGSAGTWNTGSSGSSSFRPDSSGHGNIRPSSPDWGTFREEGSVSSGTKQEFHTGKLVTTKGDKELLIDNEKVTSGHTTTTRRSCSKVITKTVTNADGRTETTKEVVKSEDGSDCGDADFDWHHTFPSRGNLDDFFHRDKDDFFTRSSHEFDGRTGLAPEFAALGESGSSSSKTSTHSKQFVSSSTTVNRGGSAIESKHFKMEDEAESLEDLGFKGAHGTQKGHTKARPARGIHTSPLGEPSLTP
T3 sequence (looked up) 2: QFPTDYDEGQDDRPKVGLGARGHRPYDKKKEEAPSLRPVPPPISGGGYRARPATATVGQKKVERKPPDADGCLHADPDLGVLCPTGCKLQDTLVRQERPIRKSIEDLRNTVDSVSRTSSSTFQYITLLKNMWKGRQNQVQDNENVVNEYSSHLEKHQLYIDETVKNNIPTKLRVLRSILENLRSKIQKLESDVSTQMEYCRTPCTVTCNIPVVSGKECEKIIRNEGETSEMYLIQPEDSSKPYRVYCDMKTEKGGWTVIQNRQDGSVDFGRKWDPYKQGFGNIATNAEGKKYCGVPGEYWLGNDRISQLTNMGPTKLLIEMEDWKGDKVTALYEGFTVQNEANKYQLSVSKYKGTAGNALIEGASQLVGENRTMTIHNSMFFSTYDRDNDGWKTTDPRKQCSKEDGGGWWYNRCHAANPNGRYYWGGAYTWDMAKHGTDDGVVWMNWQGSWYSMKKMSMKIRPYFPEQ
T3 sequence (looked up) 3: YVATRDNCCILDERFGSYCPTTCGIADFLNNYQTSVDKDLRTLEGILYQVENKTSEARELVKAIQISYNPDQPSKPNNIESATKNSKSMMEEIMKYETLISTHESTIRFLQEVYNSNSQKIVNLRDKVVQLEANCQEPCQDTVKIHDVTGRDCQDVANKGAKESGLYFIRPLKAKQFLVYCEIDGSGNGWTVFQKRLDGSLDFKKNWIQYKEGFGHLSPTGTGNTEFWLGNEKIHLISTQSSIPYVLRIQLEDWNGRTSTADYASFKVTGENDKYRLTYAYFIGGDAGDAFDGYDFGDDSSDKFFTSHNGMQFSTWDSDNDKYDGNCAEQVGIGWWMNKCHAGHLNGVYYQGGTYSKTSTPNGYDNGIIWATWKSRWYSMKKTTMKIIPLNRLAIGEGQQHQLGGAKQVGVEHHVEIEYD
Experimental: as §1

Cytokine 1 (human) = Cytokine 1 (human) (human)
Experimental: as §1

human M-CSF = molecular target: T4, human M-CSF (human, UniProt P09603 33-255, limits assumed)
T4 construct: also called M-CSF (human); CSF-1
T4 sequence: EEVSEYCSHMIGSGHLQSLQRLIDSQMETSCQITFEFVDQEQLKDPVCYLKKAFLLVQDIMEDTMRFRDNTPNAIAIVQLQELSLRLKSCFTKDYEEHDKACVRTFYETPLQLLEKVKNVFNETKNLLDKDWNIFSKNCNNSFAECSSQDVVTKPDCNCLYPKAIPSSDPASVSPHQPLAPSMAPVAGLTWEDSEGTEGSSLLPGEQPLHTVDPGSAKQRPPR
Experimental: as §1

Sequence of Pepsinogen (pork) (P00791 16-385): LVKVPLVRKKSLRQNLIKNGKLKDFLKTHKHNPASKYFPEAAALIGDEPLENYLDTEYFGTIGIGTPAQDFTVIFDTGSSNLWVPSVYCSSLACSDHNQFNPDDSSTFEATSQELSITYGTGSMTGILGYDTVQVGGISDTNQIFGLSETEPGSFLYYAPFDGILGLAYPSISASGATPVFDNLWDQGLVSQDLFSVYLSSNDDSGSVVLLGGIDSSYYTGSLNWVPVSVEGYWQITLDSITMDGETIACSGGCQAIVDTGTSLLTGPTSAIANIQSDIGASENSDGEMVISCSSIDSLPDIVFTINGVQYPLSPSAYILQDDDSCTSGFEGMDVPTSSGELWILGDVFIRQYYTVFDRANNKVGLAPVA
Sequence of Aminogylcosidase (Aspergillus niger) (Aspergillus niger) (P69328 25-640): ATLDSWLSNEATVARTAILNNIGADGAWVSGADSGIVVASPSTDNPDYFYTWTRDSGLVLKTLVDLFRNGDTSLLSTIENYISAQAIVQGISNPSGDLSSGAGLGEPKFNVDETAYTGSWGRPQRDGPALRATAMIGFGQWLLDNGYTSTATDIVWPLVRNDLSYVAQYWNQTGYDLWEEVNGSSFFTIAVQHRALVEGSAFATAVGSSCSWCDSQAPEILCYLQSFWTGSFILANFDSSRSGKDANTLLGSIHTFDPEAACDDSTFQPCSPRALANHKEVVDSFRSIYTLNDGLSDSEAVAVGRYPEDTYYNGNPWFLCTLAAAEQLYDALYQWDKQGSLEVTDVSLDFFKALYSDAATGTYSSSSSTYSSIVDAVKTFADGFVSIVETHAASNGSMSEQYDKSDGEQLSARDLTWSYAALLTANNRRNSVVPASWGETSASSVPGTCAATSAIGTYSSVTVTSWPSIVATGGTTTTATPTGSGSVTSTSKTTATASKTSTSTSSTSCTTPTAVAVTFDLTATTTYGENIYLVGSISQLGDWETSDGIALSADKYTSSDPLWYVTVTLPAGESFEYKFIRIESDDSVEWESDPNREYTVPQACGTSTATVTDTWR

B1: Camille (format not stated) (antibody, V domains shown)
VH: QVQLQQSGPGLVKPSQTLSLTCAISGESVSTSSAAWNWIRQSPSRGLEWLGRTYYRSKWKHEYAVSVKSRITINPDTSKNQFSLQLNSVTPEDTAVYYCARDRYYYSAFDYWGQGTLVTVSS
VL: QSALTQPASVSGSPGQSITISCTGTSSDVGGYNSVSWYQQHPGKAPKLLIYAVSNRPSGVSNRFSGSKSGNTASLTISGLQAEDEADYYCASYDERFTRVFGGGTKLTVLG
notes: also called Antibody Camille
- signal normalized to reference antibody MOR03207 (Ovalbumin (chicken)): 1 ratio
- signal normalized to reference antibody MOR03207 (Pepsinogen (pork)): 1 ratio
- signal normalized to reference antibody MOR03207 (Lectin (Lens culinaris)): 1 ratio
- signal normalized to reference antibody MOR03207 [1]: 1 ratio
- signal normalized to reference antibody MOR03207 (Fibrinogen (bovine)): 1 ratio
- signal normalized to reference antibody MOR03207 (Cytokine 1 (human)): 1 ratio
- signal normalized to reference antibody MOR03207 (human M-CSF): 244 ratio
